This passage reports Kd results from patent publication US20220289845A1.

The target of assay [1] is cynomolgus CD47. Put plainly: SPR; assay 1. In general terms: SPR reads the build-up and loss of mass on a sensor chip optically.
Assay [2] deals with human CD47 (UniProt Q08722). In words: SPR; assay 1.
Assay [3] has as its target cynomolgus CD47. In words: SPR; assay 2.
The target in assay [4] is human CD47 (UniProt Q08722). Put plainly: SPR; assay 2.
In assay [5] the target is cynomolgus CD47. Put plainly: SPR; average.
In assay [6] the target is human CD47 (UniProt Q08722). In words: SPR; average.

cynomolgus CD47, sequence (Q08722 other isoform, or with tags, fused parts or gaps): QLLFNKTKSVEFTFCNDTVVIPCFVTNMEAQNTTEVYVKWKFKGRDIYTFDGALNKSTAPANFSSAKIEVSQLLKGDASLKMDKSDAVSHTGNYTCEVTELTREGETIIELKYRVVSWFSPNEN
human CD47, sequence (Q08722 19-142): as the sequence (Q08722 other isoform, or with tags, fused parts or gaps) above, with A59V, A61T, N62D counted along it

Regarding Hu5F9-G4, the Kd (as a rule, the free concentration of one partner at which half of the binding sites on the other are occupied at equilibrium, for simple one-to-one binding) with cynomolgus CD47 [1] was determined as 12.1 pM; in the assay with human CD47 [2] it was 14.3 pM; with cynomolgus CD47 [3], 7.24 pM; with human CD47 [4] it was 2.02 pM; with cynomolgus CD47 [5], 10 pM; in the assay with human CD47 [6] it was 8 pM.
